{"source": "patent US20240067720A1", "about": "(SHANGHAI JUNSHI BIOSCIENCES, published 2024)", "binders": {"B1": {"name": "humanized anti-TIGIT monoclonal antibody hu20 (antibody, human IgG4 S228P, kappa, V domains shown)", "VH": "QVQLVQSGAEVKKPGASVKVSCKTSGYAFTEYTMHWVRQAPGKGLEWMGGINPNTGGTTYNQKFQGRVTLTVDKSSSTAYMELSSLRSEDTVVYYCAKLLRLMYYFDYWGQGTLVTVSS", "VL": "DIQMTQSPSSLSASVGDRVTITCQASQDVRTAVAWYQQKPGKAPKLLIYSASYRYTGVPSRFSGSGSGTDFTFTISSLQPEDIATYYCHQHYITPWTFGGGTKVEIKR"}}, "target": "T1, hTIGIT expressed on Jurkat reporter cells (hTIGIT/NFAT-luciferase) (human, UniProt Q495A1 22-244)", "T1 sequence (looked up)": "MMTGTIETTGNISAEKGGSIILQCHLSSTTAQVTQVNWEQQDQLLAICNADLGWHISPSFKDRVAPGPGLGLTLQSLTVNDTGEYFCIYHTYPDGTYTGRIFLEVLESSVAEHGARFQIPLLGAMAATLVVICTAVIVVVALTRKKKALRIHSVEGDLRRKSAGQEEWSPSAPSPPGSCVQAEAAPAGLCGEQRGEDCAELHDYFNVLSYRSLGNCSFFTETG", "test": "cell-based or functional assay", "data": [{"binder": "B1", "values": [{"measurement": "EC50 of T cell activation; luminescence of Jurkat hTIGIT/NFAT-luciferase reporter cells co-cultured with CHO cells expressing hPVRL2", "value": 0.0424, "unit": "µg/mL"}]}]}
